B2: GABARAP (purified) (natural protein, human)
chain: FVYKEEHPFEKRRSEGEKIRKKYPDRVPVIVEKAPKARIGDLDKKKYLVPSDLTVGQFYFLIRKRIHLRAEDALFFFVNNVIPPTSATMGQLYQEHHEEDFFLYIAYSDESVYG
notes: GABARAP, Homo sapiens; 15N-labelled in the NMR titration; also called HIS6-3C-GABARAP; HIS6-GABARAP; source: E. coli Rosetta2 (DE3) pLysS, purified (HisTrap, ion exchange, SEC)
B3: HsC53^cAIM (purified, ITC) (natural protein)
chain: MEDHQHVPIDIQTSKLLDWLVDRRHCSLKWQSLVLTIREKINAAIQDMPESEEIAQLLSGSYIHYFHCLRILDLLKGTEASTKNIFGRYSSQRMKDWQEIIALYEKDNTYLVELSSLLVRNVNYEIPSLKKQIAKCQQLQQEYSRKEEECQAGAAEMREQFYHSCKQYGITGENVRGELLALVKDLPSQLAEIGAAAQQSLGEAIDVYQASVGFVCESPTEQVLPMLRFVQKRGNSTVYEWRTGTEPSVVERPHLEELPEQVAEDAWDGIDFGVEAVSEGTDSGISAEAAGWDGIIFPESDSKDPGGDGWDGIDDAVALQITVLEAGTQAPEGVARGPDALTLLEYTETRNQFLDELMELEIFLAQRAVELSEEADVLSVSQFQLAPAILQGQTKEKMVTMVSVLEDLIGKLTSLQLQHLFMILASPRYVDRVTEFLQQKLKQSQLLALKKELMVQKQQEALEEQAALEPKLDLLLEKTKELQKLIEADISKRYSGRPVNLMGTSL
notes: source: E. coli Rosetta2 (DE3) pLysS, purified

Common to all, as to conditions: both partners purified
One test concerns the target T1, AtUFM1 (purified) (Arabidopsis thaliana).
T1 construct: UFM1, Arabidopsis thaliana; 15N-labelled or unlabelled in NMR; also called HIS6-3C-AtUFM1; HIS6-AtUFM1; source: E. coli Rosetta2 (DE3) pLysS, purified (HisTrap, ion exchange, SEC)
Nature of the test: fluorescence polarisation; fluorescence anisotropy; ATG8A or AtUFM1 (250 nM-320 μM) added to 50 nM TAMRA-labeled peptide, 10 min at 4°C. (Polarisation of emitted light reports the rotation of a fluorescent probe.)

The target of a further test is T2, ATG8A (purified) (Arabidopsis thaliana, UniProt Q8LEM4 1-117).
T2 construct: ATG8A, Arabidopsis thaliana; 3C site after the His6 tag; 15N-labelled or unlabelled in NMR; also called HIS6-3C-ATG8A; source: E. coli Rosetta2 (DE3) pLysS, purified (HisTrap, ion exchange, SEC)
T2 sequence (looked up): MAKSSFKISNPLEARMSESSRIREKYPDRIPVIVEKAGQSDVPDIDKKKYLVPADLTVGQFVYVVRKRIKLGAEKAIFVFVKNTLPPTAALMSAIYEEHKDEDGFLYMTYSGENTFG
The test is described as above.

The next test has as its target T3, mCh-HsC53 (human, UniProt Q96JB5 1-506).
T3 construct: also called mCherry-tagged human C53; not shown: mCherry, N-terminal, kept
T3 sequence (looked up): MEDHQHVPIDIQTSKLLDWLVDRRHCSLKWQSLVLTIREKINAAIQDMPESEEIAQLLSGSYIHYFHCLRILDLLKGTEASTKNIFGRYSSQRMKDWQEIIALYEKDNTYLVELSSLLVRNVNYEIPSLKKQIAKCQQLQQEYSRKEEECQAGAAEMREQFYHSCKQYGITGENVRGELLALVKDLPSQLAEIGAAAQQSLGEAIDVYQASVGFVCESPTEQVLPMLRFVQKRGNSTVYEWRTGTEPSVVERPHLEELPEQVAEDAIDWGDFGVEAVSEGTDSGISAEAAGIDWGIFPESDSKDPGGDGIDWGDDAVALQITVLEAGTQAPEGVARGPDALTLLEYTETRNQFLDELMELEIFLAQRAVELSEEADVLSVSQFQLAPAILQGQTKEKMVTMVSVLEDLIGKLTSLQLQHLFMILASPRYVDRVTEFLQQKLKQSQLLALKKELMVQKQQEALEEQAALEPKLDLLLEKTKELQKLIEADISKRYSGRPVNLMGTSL
Nature of the test: microscopy-based on-bead protein-protein interaction assay.

Test [1] deals with B3. In words: ITC. A general note: In ITC the heat of successive injections is recorded.
The target in the test “GABARAP (purified)” is B2. Nature of the test: ITC.
For another test, the target named is cAIM wt peptide. Nature of the test: microscopy-based on-bead protein-protein interaction assay.
In the next test the target is T4, HsUFM1 (purified) (human, UniProt P61960 1-85).
T4 construct: UFM1, Homo sapiens; 15N-labelled in the NMR titration; also called human UFM1; source: E. coli Rosetta2 (DE3) pLysS, purified (HisTrap, ion exchange, SEC)
T4 sequence (P61960 whole entry): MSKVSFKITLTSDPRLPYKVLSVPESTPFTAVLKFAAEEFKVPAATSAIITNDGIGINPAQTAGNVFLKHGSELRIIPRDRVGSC
In words: native MS; HsUFM1 (5 μM) with peptide (25 μM); ammonium acetate, nanoelectrospray, Synapt G2Si.

No end group written: not given here. TAMRA = 5(6)-carboxytetramethylrhodamine

One may read the Kd as the concentration at which binding is half-saturated. Broadly, the stoichiometry N is a count of units in the complex or per binding partner.

Consider {TAMRA}-AADSIDWDITVETPEIDWDVSMVEEV [sAIM1,2 peptide (AtC53 IDR-derived peptide that covers both sAIM1 and sAIM2)], for which the figures for the Kd in the test with AtUFM1 (purified) and with ATG8A (purified) were 148 µM and 26.5 µM, respectively.

B1: GST-GABARAP (natural protein, human, UniProt O95166 1-117, looked up)
chain: MKFVYKEEHPFEKRRSEGEKIRKKYPDRVPVIVEKAPKARIGDLDKKKYLVPSDLTVGQFYFLIRKRIHLRAEDALFFFVNNVIPPTSATMGQLYQEHHEEDFFLYIAYSDESVYGL
notes: also called human ATG8 isoform GABARAP; human ATG8; not shown: GST, N-terminal, kept
As for B1, the binding result with mCh-HsC53 was “binds”. Turning to B2, the affinity in test [1], expressed as Kd, was 11.2 µM.

For the molecule B3, the “fold increase in affinity against the C53 wild type” value with GABARAP (purified) came out at 1.8 fold.

B4: GST-ATG8A (natural protein)
chain: MAKSSFKISNPLEARMSESSRIREKYPDRIPVIVEKAGQSDVPDIDKKKYLVPADLTVGQFVYVVRKRIKLGAEKAIFVFVKNTLPPTAALMSAIYEEHKDEDGFLYMTYSGENTFG
notes: also called Arabidopsis ATG8A; not shown: GST, N-terminal, kept
Take B4: the binding result with cAIM wt peptide is “binds”.

B5: AtUBA5 LIR peptide (peptide)
peptide: GPLHDDNEWNISVVDD
notes: LIR/UFIM peptide of UBA5; also called AtUBA5 LIR/UFIM peptide; UBA5 LIR/UFIM; source: synthetic peptide (synthetized in house)
Turning to B5, the “stoichiometry N” value in the test with HsUFM1 (purified) worked out at 1.

The values above are taken from publication PMC10183829, “Shuffled ATG8 interacting motifs form an ancestral bridge between UFMylation and autophagy” (The EMBO Journal, 2023).
